Results as given in the Immune Epitope Database (IEDB).

Legend:
HLA-A*32:01 = assay: IEDB peptide-MHC binding, purified MHC/competitive/radioactivity; filed as Kd, often an IC50 or EC50 that approximates it; ≥ and ≤ were set here for values at or beyond the usual limits of such assays
HLA-B*44:03 = assay: as above
HLA-B*40:01 = assay: as above
HLA-B*07:02 = assay: IEDB peptide-MHC binding, purified MHC/direct/fluorescence; filed as Kd, often an IC50 or EC50 that approximates it; ≥ and ≤ were set here for values at or beyond the usual limits of such assays
HLA-A*02:01 [1] = assay: IEDB peptide-MHC binding, purified MHC/competitive/fluorescence; filed as Kd, often an IC50 or EC50 that approximates it; ≥ and ≤ were set here for values at or beyond the usual limits of such assays
HLA-A*01:01 [2] = assay: IEDB peptide-MHC binding, purified MHC/competitive/radioactivity; filed as Kd, often an IC50 or EC50 that approximates it; ≥ and ≤ were set here for values at or beyond the usual limits of such assays
HLA-A*23:01 = assay: as above
HLA-A*24:02 = assay: as above
HLA-A*26:01 = assay: as above
HLA-A*29:02 = assay: as above
HLA-A*30:02 = assay: as above
HLA-A*01:01 [3] = assay: IEDB peptide-MHC binding, purified MHC/direct/fluorescence; filed as Kd, often an IC50 or EC50 that approximates it; ≥ and ≤ were set here for values at or beyond the usual limits of such assays
HLA-B*58:01 = assay: as above; conditions: source organism: SARS-CoV1
HLA-A*11:01 = assay: as above; conditions: source organism: Homo sapiens
HLA-A*69:01 = assay: as above
HLA-B*15:01 = assay: as above; conditions: source organism: Homo sapiens
HLA-A*02:01 [4] = assay: as above; conditions: source organism: Clostridium botulinum
[5] = source organism: Vaccinia virus WR
[6] = source organism: Dengue virus 4 Philippines/H241/1956
[7] = source organism: Dengue virus 3 Martinique/1243/1999
[8] = source organism: Dengue virus 2 Jamaica/1409/1983
[9] = source organism: SARS coronavirus Tor2
[10] = source organism: Triticum aestivum
[11] = source organism: Mycobacterium tuberculosis
[12] = source organism: Lassa virus GA391
[13] = source organism: Mammarenavirus whitewaterense

With HIYFVSLLL the Kd (HLA-A*32:01; [5]) was 15.3 nM.

MEVEIWTRE gave a Kd (HLA-B*44:03; [6]) of 1080 nM.

For TEATQLATL, the Kd (HLA-B*40:01; [7]) was 8.32 nM.

LLWKTWYPC showed a Kd (HLA-B*07:02; source organism: Homo sapiens) of 14.6 µM.

KTTWLPVLL was tested, and the Kd (HLA-A*32:01; source organism: Dengue virus 1 Brazil/97-11/1997) was 148 nM.

With ITFLRVLSI the Kd (HLA-A*32:01; [6]) was 100 nM.

Work on IHAKHEWMTT yielded a Kd (HLA-A*32:01; [8]) of 5230 nM.

For VAEGQTLDL, the Kd (HLA-B*07:02; source organism: Homo sapiens) was ≥ 87.2 µM.

LLNNSLGSV showed a Kd (HLA-A*02:01 [1]; source organism: Vaccinia virus Copenhagen) of 3.6 nM.

For NMVYMPASW, the Kd (HLA-A*01:01 [2]; [9]) was ≥ 78100 nM, the Kd (HLA-A*23:01; [9]) was 0.706 µM and the Kd (HLA-A*24:02; [9]) was 4.02 µM. For the same sequence, the Kd (HLA-A*26:01; [9]) was ≥ 77900 nM, the Kd (HLA-A*29:02; [9]) was ≥ 25100 nM and the Kd (HLA-A*30:02; [9]) was ≥ 96800 nM.

QFEEIRNLAL was tested, and the Kd (HLA-A*01:01 [2]; [10]) was ≥ 70400 nM, the Kd (HLA-A*23:01; [10]) was ≥ 21.7 µM and the Kd (HLA-A*24:02; [10]) was 6.85 µM. For the same sequence, the Kd (HLA-A*26:01; [10]) was ≥ 69700 nM, the Kd (HLA-A*29:02; [10]) was 3880 nM and the Kd (HLA-A*30:02; [10]) was 7390 nM.

Sequence ELSPRWYFYY has a Kd (HLA-A*01:01 [2]; [9]) of 91.4 nM, a Kd (HLA-A*23:01; [9]) of 8.81 µM and a Kd (HLA-A*24:02; [9]) of 9.44 µM. The Kd (HLA-A*26:01; [9]) was 4.04 nM, the Kd (HLA-A*29:02; [9]) was 8.01 nM and the Kd (HLA-A*30:02; [9]) was 60.1 nM.

LSDHQDLKW gave a Kd (HLA-A*01:01 [3]; source organism: SARS-CoV1) of 818 nM and a Kd (HLA-B*58:01) of 26.6 nM.

With PTTTYTLEY the Kd (HLA-A*01:01 [3]; [11]) was 14.2 nM.

In the case of ILLFVIVIY, the Kd (HLA-A*32:01; [5]) is reported as 952 nM.

ISQHQHLAI gave a Kd (HLA-A*32:01; [5]) of 107 nM.

KFRDMITFR was tested, and the Kd (HLA-A*01:01 [3]; source organism: Vibrio cholerae) was ≥ 20000 nM.

With KDFKCFNLI the Kd (HLA-A*01:01 [2]; [12]) was 1180 nM, the Kd (HLA-A*23:01; [12]) was 0.395 µM and the Kd (HLA-A*24:02; [12]) was 0.792 µM. The Kd (HLA-A*26:01; [12]) was ≥ 77900 nM, the Kd (HLA-A*29:02; [12]) was ≥ 78900 nM and the Kd (HLA-A*30:02; [12]) was ≥ 33600 nM.

In the case of RQVEKVETW, the Kd (HLA-A*32:01; [7]) is reported as 79.6 nM.

MTLFKSILF gave a Kd (HLA-A*32:01; [5]) of 11.3 nM.

With ATEETFKLSY the Kd (HLA-A*01:01 [2]; [9]) was 54.4 nM, the Kd (HLA-A*23:01; [9]) was ≥ 52.5 µM and the Kd (HLA-A*24:02; [9]) was ≥ 70.3 µM. The Kd (HLA-A*26:01; [9]) was 11700 nM, the Kd (HLA-A*29:02; [9]) was 224 nM and the Kd (HLA-A*30:02; [9]) was 387 nM.

Work on MTLGMCCII yielded a Kd (HLA-A*32:01; [8]) of 2590 nM.

In the case of GVSGGAWVDL, the Kd (HLA-A*32:01; [6]) is reported as ≥ 69900 nM.

GTGPEASLPY was tested, and the Kd (HLA-A*01:01 [2]; [9]) was 349 nM, the Kd (HLA-A*23:01; [9]) was ≥ 70 µM and the Kd (HLA-A*24:02; [9]) was ≥ 70.3 µM. For the same sequence, the Kd (HLA-A*26:01; [9]) was 412 nM, the Kd (HLA-A*29:02; [9]) was 117 nM and the Kd (HLA-A*30:02; [9]) was 920 nM.

Sequence EVDPIGHLY has a Kd (HLA-A*11:01) of 3.36 µM, a Kd (HLA-A*69:01; source organism: Homo sapiens) of 4.39 µM and a Kd (HLA-B*15:01) of 3.71 µM.

YTGNYQCGHY was tested, and the Kd (HLA-A*01:01 [2]; [9]) was 3.38 nM, the Kd (HLA-A*23:01; [9]) was ≥ 70 µM and the Kd (HLA-A*24:02; [9]) was ≥ 70.3 µM. The Kd (HLA-A*26:01; [9]) was 128 nM, the Kd (HLA-A*29:02; [9]) was 22.5 nM and the Kd (HLA-A*30:02; [9]) was 1.15 nM.

With FSSLPSYAAY the Kd (HLA-A*01:01 [2]; [9]) was 2.04 nM, the Kd (HLA-A*23:01; [9]) was ≥ 70 µM and the Kd (HLA-A*24:02; [9]) was ≥ 70.3 µM. It also gave a Kd (HLA-A*26:01; [9]) of 261 nM, a Kd (HLA-A*29:02; [9]) of 8.85 nM and a Kd (HLA-A*30:02; [9]) of 2.77 nM.

Sequence FEEYKRSGIL has a Kd (HLA-B*40:01; [6]) of 18.7 nM.

SLFSLLLVI showed a Kd (HLA-A*32:01; [5]) of 27.5 nM.

For HDHHFTPQI, the Kd (HLA-A*01:01 [2]; [13]) was ≥ 78100 nM, the Kd (HLA-A*23:01; [13]) was ≥ 45.3 µM and the Kd (HLA-A*24:02; [13]) was ≥ 77.5 µM. The Kd (HLA-A*26:01; [13]) was ≥ 77900 nM, the Kd (HLA-A*29:02; [13]) was ≥ 78900 nM and the Kd (HLA-A*30:02; [13]) was ≥ 76900 nM.

MIRAQAGSL gave a Kd (HLA-B*07:02; [11]) of 0.0335 µM.

Sequence FEKQLGQVML has a Kd (HLA-B*40:01; [8]) of 130 nM.

With FLWSSIIFK the Kd (HLA-A*02:01 [4]) was 4.43 µM and the Kd (HLA-A*69:01; source organism: Clostridium botulinum) was 7 µM.

In the case of LTQDLFLPFY, the Kd (HLA-A*01:01 [2]; [9]) is reported as 8.38 nM, the Kd (HLA-A*23:01; [9]) is reported as 18 µM and the Kd (HLA-A*24:02; [9]) is reported as 10.5 µM. The Kd (HLA-A*26:01; [9]) was 481 nM, the Kd (HLA-A*29:02; [9]) was 53.5 nM and the Kd (HLA-A*30:02; [9]) was 2.26 nM.

Sequence RETACLGKAY has a Kd (HLA-B*44:03; [7]) of 17.9 nM.

GEIGAIALD was tested, and the Kd (HLA-B*44:03; [7]) was 907 nM.

Sequence ITDVIVQSI has a Kd (HLA-A*32:01; [5]) of 256 nM.

KEIGRMLNIL was tested, and the Kd (HLA-B*40:01; [8]) was 4.83 nM.

For QYGSFCTQL, the Kd (HLA-A*01:01 [2]; [9]) was ≥ 78100 nM, the Kd (HLA-A*23:01; [9]) was ≥ 75.4 µM and the Kd (HLA-A*24:02; [9]) was ≥ 107 µM. For the same sequence, the Kd (HLA-A*26:01; [9]) was ≥ 77900 nM, the Kd (HLA-A*29:02; [9]) was ≥ 78900 nM and the Kd (HLA-A*30:02; [9]) was ≥ 93800 nM.

With MTVASRQPI the Kd (HLA-A*32:01; [5]) was 2860 nM.

LEIDFGECPG was tested, and the Kd (HLA-B*40:01; [6]) was 10200 nM.

With EIEPKLDGYY the Kd (HLA-A*01:01 [2]; [9]) was 55.1 nM, the Kd (HLA-A*23:01; [9]) was ≥ 70 µM and the Kd (HLA-A*24:02; [9]) was ≥ 70.3 µM. It also gave a Kd (HLA-A*26:01; [9]) of 163 nM, a Kd (HLA-A*29:02; [9]) of 7390 nM and a Kd (HLA-A*30:02; [9]) of 534 nM.

For KEENLVNSL, the Kd (HLA-B*40:01; [8]) was 2.17 nM.

With KVHADDIPV the Kd (HLA-A*02:01 [1]; source organism: Escherichia coli) was 15.3 nM.

TKHPSLNII was tested, and the Kd (HLA-A*01:01 [2]; [13]) was ≥ 47100 nM, the Kd (HLA-A*23:01; [13]) was ≥ 53.1 µM and the Kd (HLA-A*24:02; [13]) was ≥ 52.1 µM. For the same sequence, the Kd (HLA-A*26:01; [13]) was ≥ 77900 nM, the Kd (HLA-A*29:02; [13]) was ≥ 78900 nM and the Kd (HLA-A*30:02; [13]) was ≥ 76900 nM.
